# Biological target: soybean QUAC1 from Glycine max (GmQUAC1) (soybean (Glycine max))
# Test: cryo-EM structure
substance,measurement,value
soybean QUAC1 from Glycine max (GmQUAC1) (natural protein),stoichiometry N,2

# From article doi:10.1101/2021.09.09.459598
